Laboratory results published in patent US9580733B2, “Methods of producing 6-carbon chemicals via methyl-ester shielded carbon chain elongation” (INVISTA North America S.á r.l., priority 2012, dated 2017).
Each block holds one molecule with its values, some of them ahead of it.

Key:
Format in all cases: biochemical
[1] = ω-transaminase activity assay, forward direction, adipate semialdehyde to 6-aminohexanoate; details: cell free extract, 10 mM adipate semialdehyde, 10 mM L-alanine, 25° C., 4 h, vs empty vector control, FIG. 16
Procedure: (§1) A nucleotide sequence encoding a His-tag was added to the genes from Chromobacterium violaceum, Pseudomonas aeruginosa, Pseudomonas syringae, Rhodobacter sphaeroides, and Vibrio fluvialis encoding the ω-transaminases of SEQ ID NOs: 7, 8, 9, 10 and 12, respectively (see FIGS. 7E and 7F) such that N-terminal HIS tagged ω-transaminases could be produced. Each of the resulting modified genes was cloned into a pET21a expression vector under control of the T7 promoter and each expression vector was transformed into a BL21[DE3] E. coli host. The resulting recombinant E. coli strains were cultivated at 37° C. in a 250 mL shake flask culture containing 50 mL LB media and antibiotic selection pressure, with shaking at 230 rpm. Each culture was induced overnight at 16° C. using 1 mM IPTG.
(§2) The pellet from each induced shake flask culture was harvested via centrifugation. Each pellet was resuspended and lysed via sonication. The cell debris was separated from the supernatant via centrifugation and the cell free extract was used immediately in enzyme activity assays.
Enzyme activity in the forward direction (i.e., adipate semialdehyde to 6-aminohexanoate) was confirmed for the transaminases of SEQ ID NO 7, SEQ ID NO 8, SEQ ID NO 9, SEQ ID NO 10 and SEQ ID NO 12. Enzyme activity assays were performed in a buffer composed of a final concentration of 50 mM HEPES buffer (pH=7.5), 10 mM adipate semialdehyde, 10 mM L-alanine and 100 μM pyridoxyl 5′ phosphate. Each enzyme activity assay reaction was initiated by adding a cell free extract of the ω-transaminase gene product or the empty vector control to the assay buffer containing the adipate semialdehyde and incubated at 25° C. for 4 h, with shaking at 250 rpm. The formation of pyruvate was quantified via RP-HPLC.

[2] = ω-transaminase activity assay, reverse direction, 6-aminohexanoate to adipate semialdehyde; details: cell free extract, 10 mM 6-aminohexanoate, 10 mM pyruvate, 25° C., 24 h, vs empty vector control, FIG. 15
Procedure: as §1, §2
Enzyme activity assays in the reverse direction (i.e., 6-aminohexanoate to adipate semialdehyde) were performed in a buffer composed of a final concentration of 50 mM HEPES buffer (pH=7.5), 10 mM 6-aminohexanoate, 10 mM pyruvate and 100 μM pyridoxyl 5′ phosphate. Each enzyme activity assay reaction was initiated by adding cell free extract of the ω-transaminase gene product or the empty vector control to the assay buffer containing the 6-aminohexanoate and incubated at 25° C. for 24 h, with shaking at 250 rpm. The formation of L-alanine from pyruvate was quantified via RP-HPLC.

[3] = Thioesterase enzyme activity assay, adipyl-CoA to adipate; details: 667 μM adipyl-CoA, pH 7.4, 37° C., 20 min, vs empty vector control, FIG. 8
Procedure: A sequence encoding an N-terminal His-tag was added to the genes from Escherichia coli encoding the thioesterases of SEQ ID NOs: 1 and 2 respectively (see FIG. 7A), such that an N-terminal HIS tagged thioesterase could be produced. Each of the resulting modified genes was cloned into a pET15b expression vector under control of the T7 promoter. Each expression vector was transformed into a BL21[DE3] E. coli host. The resulting recombinant E. coli strains were cultivated at 37° C. in a 500 mL shake flask culture containing 50 mL Luria Broth (LB) media and antibiotic selection pressure, with shaking at 230 rpm. The culture was induced overnight at 17° C. using 0.5 mM IPTG.
The pellet from the induced shake flask culture was harvested via centrifugation. The pellet was resuspended and lysed in Y-per™ solution (ThermoScientific, Rockford, Ill.). The cell debris was separated from the supernatant via centrifugation. […]
The enzyme activity assay was performed in triplicate in a buffer composed of 50 mM phosphate buffer (pH=7.4), 0.1 mM Ellman's reagent, and 667 μM of adipyl-CoA (as substrate). […] The release of Coenzyme A was monitored by absorbance at 412 nm. The absorbance associated with the substrate only control, which contained boiled enzyme, was subtracted from the active enzyme assay absorbance and compared to the empty vector control.

B1: SEQ ID NO 8: Chromobacterium violaceum ω-transaminase (Genbank Accession No. AAQ59697.1) (protein, listed as Chromobacterium violaceum)
chain: MQKQRTTSQWRELDAAHHLHPFTDTASLNQAGARVMTRGEGVYLWDSEGNKIIDGMAGLWCVNVGYGRKDFAEAARRQMEELPFYNTFFKTTHPAVVELSSLLAEVTPAGFDRVFYTNSGSESVDTMIRMVRRYWDVQGKPEKKTLIGRWNGYHGSTIGGASLGGMKYMHEQGDLPIPGMAHIEQPWWYKHGKDMTPDEFGVVAARWLEEKILEIGADKVAAFVGEPIQGAGGVIVPPATYWPEIERICRKYDVLLVADEVICGFGRTGEWFGHQHFGFQPDLFTAAKGLSSGYLPIGAVFVGKRVAEGLIAGGDFNHGFTYSGHPVCAAVAHANVAALRDEGIVQRVKDDIGPYMQKRWRETFSRFEHVDDVRGVGMVQAFTLVKNKAKRELFPDFGEIGTLCRDIFFRNNLIMRACGDHIVSAPPLVMTRAEVDEMLAVAERCLEEFEQTLKARGLA
ω-transaminase activity for converting adipate semialdehyde to 6-aminohexanoate (formation of pyruvate, RP-HPLC) [1]: accepted adipate semialdehyde as substrate

B4: SEQ ID NO 12: Escherichia coli ω-transaminase, gene product of YgjG (Genbank Accession No. AAA57874.1) (protein, listed as Escherichia coli)
chain: MNRLPSSASALACSAHALNLIEKRTLDHEEMKALNREVIEYFKEHVNPGFLEYRKSVTAGGDYGAVEWQAGSLNTLVDTQGQEFIDCLGGFGIFNVGHRNPVVVSAVQNQLAKQPLHSQELLDPLRAMLAKTLAALTPGKLKYSFFCNSGTESVEAALKLAKAYQSPRGKFTFIATSGAFHGKSLGALSATAKSTFRKPFMPLLPGFRHVPFGNIEAMRTALNECKKTGDDVAAVILEPIQGEGGVILPPPGYLTAVRKLCDEFGALMILDEVQTGMGRTGKMFACEHENVQPDILCLAKALGGGVMPIGATIATEEVFSVLFDNPFLHTTTFGGNPLACAAALATINVLLEQNLPAQAEQKGDMLLDGFRQLAREYPDLVQEARGKGMLMAIEFVDNEIGYNFASEMFRQRVLVAGTLNNAKTIRIEPPLTLTIEQCELVIKAARKALAAMRVSVEEA
ω-transaminase activity for converting 6-aminohexanoate to adipate semialdehyde (formation of L-alanine from pyruvate, RP-HPLC) [2]: accepted 6-aminohexanote as substrate
ω-transaminase activity for converting adipate semialdehyde to 6-aminohexanoate (formation of pyruvate, RP-HPLC) [1]: accepted adipate semialdehyde as substrate

B5: SEQ ID NO 1: Escherichia coli thioesterase encoded by tesB (GenBank Accession No. AAA24665.1), N-terminal His-tagged (protein, listed as Escherichia coli)
chain: MSQALKNLLTLLNLEKIEEGLFRGQSEDLGLRQVFGGQVVGQALYAAKETVPEERLVHSFHSYFLRPGDSKKPIIYDVETLRDGNSFSARRVAAIQNGKPIFYMTASFQAPEAGFEHQKTMPSAPAPDGLPSETQIAQSLAHLLPPVLKDKFICDRPLEVRPVEFHNPLKGHVAEPHRQVWIRANGSVPDDLRVHQYLLGYASDLNFLPVALQPHGIGFLEPGIQIATIDHSMWFHRPFNLNEWLLYSVESTSASSARGFVRGEFYTQDGVLVASTVQEGVMRNHN
modifications: N-terminal His tag
thioesterase activity for converting adipyl-CoA to adipate (release of Coenzyme A, absorbance at 412 nm) [3]: accepted adipyl-CoA as substrate

B6: SEQ ID NO 2: Escherichia coli thioesterase encoded by YciA (GenBank Accession No. AAB60068.1), N-terminal His-tagged (protein, listed as Escherichia coli)
chain: MSTTHNVPQGDLVLRTLAMPADTNANGDIFGGWLMSQMDIGGAILAKEIAHGRVVTVRVEGMTFLRPVAVGDVVCCYARCVQKGTTSVSINIEVWVKKVASEPIGQRYKATEALFKYVAVDPEGKPRALPVE
modifications: N-terminal His tag
thioesterase activity for converting adipyl-CoA to adipate (release of Coenzyme A, absorbance at 412 nm) [3]: accepted adipyl-CoA as substrate

Second part, led by results:

ω-transaminase activity for converting 6-aminohexanoate to adipate semialdehyde (formation of L-alanine from pyruvate, RP-HPLC) [2]: accepted 6-aminohexanote as substrate
B2: SEQ ID NO 9: Pseudomonas aeruginosa ω-transaminase (Genbank Accession No. AAG08191.1) (protein, listed as Pseudomonas aeruginosa)
chain: MNARLHATSPLGDADLVRADQAHYMHGYHVFDDHRVNGSLNIAAGDGAYIYDTAGNRYLDAVGGMWCTNIGLGREEMARTVAEQTRLLAYSNPFCDMANPRAIELCRKLAELAPGDLDHVFLTTGGSTAVDTAIRLMHYYQNCRGKRAKKHVITRINAYHGSTFLGMSLGGKSADRPAEFDFLDERIHHLACPYYYRAPEGLGEAEFLDGLVDEFERKILELGADRVGAFISEPVFGSGGVIVPPAGYHRRMWELCQRYDVLYISDEVVTSFGRLGHFFASQAVFGVQPDIILTAKGLTSGYQPLGACIFSRRIWEVIAEPDKGRCFSHGFTYSGHPVACAAALKNIEIIEREGLLAHADEVGRYFEERLQSLRDLPIVGDVRGMRFMACVEFVADKASKALFPESLNIGEWVHLRAQKRGLLVRPIVHLNVMSPPLILTREQVDTVVRVLRESIEETVEDLVRAGHR
ω-transaminase activity for converting adipate semialdehyde to 6-aminohexanoate (formation of pyruvate, RP-HPLC) [1]: accepted adipate semialdehyde as substrate

ω-transaminase activity for converting 6-aminohexanoate to adipate semialdehyde (formation of L-alanine from pyruvate, RP-HPLC) [2]: accepted 6-aminohexanote as substrate
B3: SEQ ID NO 10: Pseudomonas syringae ω-transaminase (Genbank Accession No. AAY39893.1) (protein, listed as Pseudomonas syringae)
chain: MSANNPQTLEWQALSSEHHLAPFSDYKQLKEKGPRIITRAEGVYLWDSEGNKILDGMSGLWCVAIGYGREELADAASKQMRELPYYNLFFQTAHPPVLELAKAISDIAPEGMNHVFFTGSGSEGNDTMLRMVRHYWALKGQPNKKTIISRVNGYHGSTVAGASLGGMTYMHEQGDLPIPGVVHIPQPYWFGEGGDMTPDEFGIWAAEQLEKKILELGVENVGAFIAEPIQGAGGVIVPPDSYWPKIKEILSRYDILFAADEVICGFGRTSEWFGSDFYGLRPDMMTIAKGLTSGYVPMGGLIVRDEIVAVLNEGGDFNHGFTYSGHPVAAAVALENIRILREEKIVERVRSETAPYLQKRLRELSDHPLVGEVRGVGLLGAIELVKDKTTRERYTDKGAGMICRTFCFDNGLIMRAVGDTMIIAPPLVISFAQIDELVEKARTCLDLTLAVLQG
ω-transaminase activity for converting adipate semialdehyde to 6-aminohexanoate (formation of pyruvate, RP-HPLC) [1]: accepted adipate semialdehyde as substrate
